Tests used:
[1] = target: Crotalus durissus terrificus venom; test: ELISA, C.d.t. venom-coated wells; dilution 1:625
[2] = target: Crotalus durissus terrificus venom; test: ELISA, wells coated with 5 µg/ml C.d.t. venom; dilution 1:5
[3] = target: Crotalus durissus terrificus venom; test: ELISA, C.d.t. venom-coated wells; dilution 1:25
[4] = target: Crotalus durissus terrificus venom; test: ELISA, C.d.t. venom-coated wells; dilution 1:312,500
[5] = target: Crotalus durissus terrificus venom; test: ELISA, wells coated with 5 µg/ml C.d.t. venom; dilution 1:25
[6] = target: Crotalus durissus terrificus venom; test: ELISA, wells coated with 5 µg/ml C.d.t. venom; dilution 1:125
[7] = target: Crotalus durissus terrificus venom; test: ELISA, wells coated with 5 µg/ml C.d.t. venom; undiluted
[8] = target: Crotalus durissus terrificus venom; test: ELISA, C.d.t. venom-coated wells; dilution 1:62,500
[9] = target: Crotalus durissus terrificus venom; test: ELISA, C.d.t. venom-coated wells; dilution 1:125
[10] = target: Crotalus durissus terrificus venom; test: ELISA, C.d.t. venom-coated wells; dilution 1:5
[11] = target: Crotalus durissus terrificus venom; test: ELISA, C.d.t. venom-coated wells; dilution 1:3125
[12] = target: Crotalus durissus terrificus venom; test: ELISA, wells coated with 5 µg/ml C.d.t. venom; dilution 1:625
[13] = target: Crotalus durissus terrificus venom; test: ELISA, wells coated with 5 µg/ml C.d.t. venom; dilution 1:3125

preimmune IgY (antibody)
absorbance (ELISA as in Example 4) [1]: < 0 OD
absorbance (ELISA as in Example 4) [2]: < 0 OD
absorbance (ELISA as in Example 4) [3]: 0.016 OD
absorbance (412 nm filter) [4]: 0.01 OD
absorbance (ELISA as in Example 4) [5]: 0 OD
absorbance (ELISA as in Example 4) [6]: 0.003 OD
absorbance (ELISA as in Example 4) [7]: 0.003 OD
absorbance (412 nm filter) [8]: 0.001 OD
absorbance (ELISA as in Example 4) [9]: < 0 OD
absorbance (ELISA as in Example 4) [10]: < 0 OD
absorbance (ELISA as in Example 4) [11]: < 0 OD
absorbance (ELISA as in Example 4) [12]: 0 OD
absorbance (ELISA as in Example 4) [13]: 0.002 OD
